Data from IntAct's records for PubMed 30721249.

B1: Oxysterol-binding protein-related protein 1 (Homo sapiens), Q9BXW6 (parent)
chain: MNTEAEQQLLHHARNGNAEEVRQLLETMARNEVIADINCKGRSKSNLGWTPLHLACYFGHRQVVQDLLKAGAEVNVLNDMGDTPLHRAAFTGRKELVMLLLEYNADTTIVNGSGQTAKEVTHAEEIRSMLEAVERTQQRKLEELLLAAAREGKTTELTALLNRPNPPDVNCSDQLGNTPLHCAAYRAHKQCALKLLRSGADPNLKNKNDQKPLDLAQGAEMKHILVGNKVIYKALKRYEGPLWKSSRFFGWRLFWVVLEHGVLSWYRKQPDAVHNIYRQGCKHLTQAVCTVKSTDSCLFFIKCFDDTIHGFRVPKNSLQQSREDWLEAIEEHSAYSTHYCSQDQLTDEEEEDTVSAADLKKSLEKAQSCQQRLDREISNFLKMIKECDMAKEMLPSFLQKVEVVSEASRETCVALTDCLNLFTKQEGVRNFKLEQEQEKNKILSEALETLATEHHELEQSLVKGSPPASILSEDEFYDALSDSESERSLSRLEAVTARSFEEEGEHLGSRKHRMSEEKDCGGGDALSNGIKKHRTSLPSPMFSRNDFSIWSILRKCIGMELSKITMPVIFNEPLSFLQRLTEYMEHTYLIHKASSLSDPVERMQCVAAFAVSAVASQWERTGKPFNPLLGETYELVRDDLGFRLISEQVSHHPPISAFHAEGLNNDFIFHGSIYPKLKFWGKSVEAEPKGTITLELLEHNEAYTWTNPTCCVHNIIVGKLWIEQYGNVEIINHKTGDKCVLNFKPCGLFGKELHKVEGYIQDKSKKKLCALYGKWTECLYSVDPATFDAYKKNDKKNTEEKKNSKQMSTSEELDEMPVPDSESVFIIPGSVLLWRIAPRPPNSAQMYNFTSFAMVLNEVDKDMESVIPKTDCRLRPDIRAMENGEIDQASEEKKRLEEKQRAARKNRSKSEEDWKTRWFHQGPNPYNGAQDWIYSGSYWDRNYFNLPDIY

Variants of: B1
Conditions: with rab7a_human RAB7A

| Variant | effect of a mutation on the interaction |
| --- | --- |
| F58E | disrupting interaction strength |
